The labels stand for the following.
B1: Histone-lysine N-methyltransferase SETD2, residues 2382 to 2430; numbered along this chain, Q9BYW2 (parent)
chain: SPPKPKTIVLPPNWKTARDPEGKIYYYHVITRQTQWDPPTWESPGDDAS
B2: Unconventional myosin-Ie, residues 1051 to 1108; numbered along this chain, Q12965 (parent)
chain: PQVPQCKALYAYDAQDTDELSFNANDIIDIIKEDPSGWWTGRLRGKQGLFPNNYVTKI

± gives the uncertainty stated by the source.

The first series covers variants of B1. As to the kind of experiment: abundance fitness (aPCA) (normalised: wild type 0, dead -1); higher = more abundant; growth selection in yeast, the domain comes from the species named. To be noted: Homo sapiens.
Regarding SPPKPKTIVLPPNWKTARDPEGKIYYYHVITRQTQWDPPTWESPTDDAS [G45T], the abundance fitness is -0.141 ± 0.073.

Take SPPKPKTIVLPPNWKTARDPEGKIYYYHVITRQTQWDPPTWESPMDDAS [G45M]: the abundance fitness was -0.082 ± 0.063.

Consider SPPKPKTIVLPPNWKTARDPEGKIYYYHVITRQTQWDPPTWESPVDDAS [G45V], for which the abundance fitness was -0.177 ± 0.059.

As for SPPKPKTIVLPPNWKTARDPEGKIYYYHVITRQTQWDPPTWESPFDDAS [G45F], the abundance fitness was determined as 0.019 ± 0.069.

As for SPPKPKTIVLPPNWKTARDPEGKIYYYHVITRQTQWDPPTWESPWDDAS [G45W], the abundance fitness is 0.026 ± 0.054.

Consider SPPKPKTIVLPPNWKTARDPEGKIYYYHVITRQTQWDPPTWESPHDDAS [G45H], for which the abundance fitness is -0.73 ± 0.31.

Turning to SPPKPKTIVLPPNWKTARDPEGKIYYYHVITRQTQWDPPTWESPIDDAS [G45I], the abundance fitness turned out to be 0.125 ± 0.1.

For SPPKPKTIVLPPNWKTARDPEGKIYYYHVITRQTQWDPPTWESPPDDAS [G45P], the abundance fitness came out at 0.233 ± 0.035.

For the variant SPPKPKTIVLPPNWKTARDPEGKIYYYHVITRQTQWDPPTWESPRDDAS [G45R], the abundance fitness amounted to 0.035 ± 0.047.

Consider SPPKPKTIVLPPNWKTARDPEGKIYYYHVITRQTQWDPPTWESPADDAS [G45A], for which the abundance fitness is 0.087 ± 0.041.

Consider SPPKPKTIVLPPNWKTARDPEGKIYYYHVITRQTQWDPPTWESPDDDAS [G45D], for which the abundance fitness is -0.061 ± 0.055.

For the variant SPPKPKTIVLPPNWKTARDPEGKIYYYHVITRQTQWDPPTWESPQDDAS [G45Q], the abundance fitness was -0.313 ± 0.089.

As for SPPKPKTIVLPPNWKTARDPEGKIYYYHVITRQTQWDPPTWESPYDDAS [G45Y], the abundance fitness turned out to be 0.049 ± 0.081.

With SPPKPKTIVLPPNWKTARDPEGKIYYYHVITRQTQWDPPTWESPEDDAS [G45E], the abundance fitness was 0.02 ± 0.065.

Take SPPKPKTIVLPPNWKTARDPEGKIYYYHVITRQTQWDPPTWESPKDDAS [G45K]: the abundance fitness came to 0.006 ± 0.088.

For the variant SPPKPKTIVLPPNWKTARDPEGKIYYYHVITRQTQWDPPTWESPSDDAS [G45S], the abundance fitness came out at 0.025 ± 0.04.

SPPKPKTIVLPPNWKTARDPEGKIYYYHVITRQTQWDPPTWESWGDDAS [P44W]: the abundance fitness is -0.283 ± 0.072.

As for SPPKPKTIVLPPNWKTARDPEGKIYYYHVITRQTQWDPPTWESRGDDAS [P44R], the abundance fitness is -0.031 ± 0.054.

Consider SPPKPKTIVLPPNWKTARDPEGKIYYYHVITRQTQWDPPTWESQGDDAS [P44Q], for which the abundance fitness is -0.067 ± 0.087.

With SPPKPKTIVLPPNWKTARDPEGKIYYYHVITRQTQWDPPTWESNGDDAS [P44N], the abundance fitness is -0.196 ± 0.1.

SPPKPKTIVLPPNWKTARDPEGKIYYYHVITRQTQWDPPTWESSGDDAS [P44S]: the abundance fitness is -0.166 ± 0.054.

For SPPKPKTIVLPPNWKTARDPEGKIYYYHVITRQTQWDPPTWESTGDDAS [P44T], the abundance fitness is -0.103 ± 0.083.

As to SPPKPKTIVLPPNWKTARDPEGKIYYYHVITRQTQWDPPTWESVGDDAS [P44V], the abundance fitness was -0.263 ± 0.042.

Consider SPPKPKTIVLPPNWKTARDPEGKIYYYHVITRQTQWDPPTWESMGDDAS [P44M], for which the abundance fitness was -0.016 ± 0.038.

Consider SPPKPKTIVLPPNWKTARDPEGKIYYYHVITRQTQWDPPTWESPGDDFS [A48F], for which the abundance fitness was -0.094 ± 0.068.

With SPPKPKTIVLPPNWKTARDPEGKIYYYHVITRQTQWDPPTWESPGDDYS [A48Y], the abundance fitness was found to be 0.036 ± 0.048.

In the case of SPPKPKTIVLPPNWKTARDPEGKIYYYHVITRQTQWDPPTWESPGDDKS [A48K], the abundance fitness is 0.091 ± 0.047.

Turning to SPPKPKTIVLPPNWKTARDPEGKIYYYHVITRQTQWDPPTWESPGDDNS [A48N], the abundance fitness is 0.153 ± 0.097.

For the variant SPPKPKTIVLPPNWKTARDPEGKIYYYHVITRQTQWDPPTWESPGDDCS [A48C], the abundance fitness was determined as 0.085 ± 0.044.

For SPPKPKTIVLPPNWKTARDPEGKIYYYHVITRQTQWDPPTWESPGDDHS [A48H], the abundance fitness was -0.081 ± 0.14.

Regarding SPPKPKTIVLPPNWKTARDPEGKIYYYHVITRQTQWDPPTWESPGDDGS [A48G], the abundance fitness is -0.014 ± 0.054.

Take SPPKPKTIVLPPNWKTARDPEGKIYYYHVITRQTQWDPPTWESPGDDSS [A48S]: the abundance fitness was -0.027 ± 0.067.

Regarding SPPKPKTIVLPPNWKTARDPEGKIYYYHVITRQTQWDPPTWESPGDDVS [A48V], the abundance fitness was -0.164 ± 0.057.

SPPKPKTIVLPPNWKTARDPEGKIYYYHVITRQTQWDPPTWESPGDDPS [A48P]: the abundance fitness worked out at 0.08 ± 0.072.

In the case of SPPKPKTIVLPPNWKTARDPEGKIYYYHVITRQTQWDPPTWESPGDDWS [A48W], the abundance fitness was -0.07 ± 0.072.

As for SPPKPKTIVLPPNWKTARDPEGKIYYYHVITRQTQWDPPTWESPGDDDS [A48D], the abundance fitness was 0.1 ± 0.12.

SPPKPKTIVLPPNWKTARDPEGKIYYYHVITRQTQWDPPTWESPGDDTS [A48T]: the abundance fitness came out at 0.147 ± 0.041.

Consider SPPKPKTIVLPPNWKTARDPEGKIYYYHVITRQTQWDPPTWESPGDDIS [A48I], for which the abundance fitness came to 0.095 ± 0.16.

Consider SPPKPKTIVLPPNWKTARDPEGKIYYYHVITRQTQWDPPTWESPGDDRS [A48R], for which the abundance fitness is 0.107 ± 0.057.

In the case of SPPKPKTIVLPPNWKTARDPEGKIYYYHVITRQTQWDPPTWESPGDDMS [A48M], the abundance fitness is 0.151 ± 0.09.

Consider SPPKPKTIVLPPNWKTARDPEGKIYYYHVITRQTQWDPPTWESPGDDLS [A48L], for which the abundance fitness was -0.077 ± 0.056.

Take SPPKPKTIVLPPNWKTARDPEGKIYYYHVITRQTQWDPPTWESPGDDES [A48E]: the abundance fitness is 0.1 ± 0.036.

As to SPPKPKTIVLPPNWKTARDPEGKIYYYHVITRQTQWDPPTWESPGDDQS [A48Q], the abundance fitness was -0.153 ± 0.1.

Variants of B2 are the subject of the next series. The series is described as above. To be noted: Homo sapiens.
With CQVPQCKALYAYDAQDTDELSFNANDIIDIIKEDPSGWWTGRLRGKQGLFPNNYVTKI [P1C], the abundance fitness was -0.374 ± 0.26.

Regarding QQVPQCKALYAYDAQDTDELSFNANDIIDIIKEDPSGWWTGRLRGKQGLFPNNYVTKI [P1Q], the abundance fitness came to 0.05 ± 0.093.

For the variant EQVPQCKALYAYDAQDTDELSFNANDIIDIIKEDPSGWWTGRLRGKQGLFPNNYVTKI [P1E], the abundance fitness was -0.144 ± 0.16.

As for AQVPQCKALYAYDAQDTDELSFNANDIIDIIKEDPSGWWTGRLRGKQGLFPNNYVTKI [P1A], the abundance fitness is 0.03 ± 0.074.

As for HQVPQCKALYAYDAQDTDELSFNANDIIDIIKEDPSGWWTGRLRGKQGLFPNNYVTKI [P1H], the abundance fitness came out at 0.305 ± 0.39.

GQVPQCKALYAYDAQDTDELSFNANDIIDIIKEDPSGWWTGRLRGKQGLFPNNYVTKI [P1G]: the abundance fitness is -0.198 ± 0.065.

Take LQVPQCKALYAYDAQDTDELSFNANDIIDIIKEDPSGWWTGRLRGKQGLFPNNYVTKI [P1L]: the abundance fitness amounted to 0.072 ± 0.069.

DQVPQCKALYAYDAQDTDELSFNANDIIDIIKEDPSGWWTGRLRGKQGLFPNNYVTKI [P1D]: the abundance fitness is -0.164 ± 0.2.

KQVPQCKALYAYDAQDTDELSFNANDIIDIIKEDPSGWWTGRLRGKQGLFPNNYVTKI [P1K]: the abundance fitness is 0.169 ± 0.23.

Values taken from the Human Domainome abundance scans (Beltran et al. 2025).
